# Non-standard residues stand in square brackets, D forms with d. Residues, ends and D or L forms follow the SMILES beside them. *: point of attachment. DOTA = O=C(O)CN1CCN(CC(=O)O)CCN(CC(=O)*)CCN(CC(=O)O)CC1; Nle = CCCC[C@H](N)C(=O)O
# Experiments:
# [1] = in vivo; conditions: male, SCID, mouse, iv, 10 pmol, total radioactivity
# Procedure: (§1) Inocula of A431-CCK2R(+) and A431-CCK2R(−) cells (1.5 × 10^7 cells and 1.2 × 10^7 cells respectively, in 150 µL normal saline) were subcutaneously injected in the right and left flanks respectively, of 12 male SCID mice; in 5 more mice, a A431-CCK2R(+) cell suspension (1.5 × 10^7 cells in 150 µL normal saline) was subcutaneously injected instead on the neck of the animals. […] All animals were kept under aseptic conditions during this period and until biodistribution or imaging was conducted.
# (§2) For the biodistribution study, animals in groups of 4 received a 100 μL bolus of [^99mTc]Tc-DB4 via the tail vein (200 kBq, corresponding to 10 pmol total peptide in saline/EtOH 9/1 v/v—GRPR-tumor-bearing mice) or [^111In]In-SG4 (50 kBq, 10 pmol total peptide—twin A431-CCK2R(+)/A431-CCK2R(−) tumor-bearing mice) co-injected either with injection solution (100 μL; control) or with LBQ657 solution (100 µL injection solution containing 10 µg LBQ657). In additional sets of animals, mice received, by gavage, a single Entresto dose (12 mg/[…] per animal, prepared as described in Section 2.1.1) 30 min prior to injection of the respective radiotracer together with vehicle (100 μL; Entresto group), or with a [Tyr^4]BBN solution (100 μg in 100 μL vehicle; block group). Mice were euthanized at 4 h pi and dissected. Samples of blood, tumors and organs of interest were collected, weighed and measured for radioactivity in the γ-counter (an automated well-type gamma counter with a NaI(Tl) 3′’ crystal, Canberra Packard Auto-Gamma 5000 series instrument). Intestines and stomach were not emptied of their contents; exceptionally, in the case of [^111In]In-SG4-injected animals, stomachs were emptied of their contents. Data was calculated as percent injected activity per gram tissue (%IA/g) with the aid of standard solutions and represented as mean values ± standard deviation (SD), n = 4.
# [2] = tested on: SCID mice bearing double A431-CCK2R(+/−) xenografts (CCK2R); experiment: in vivo; conditions: SCID mice with double A431-CCK2R(+/−) xenografts, 4 h pi, 50 kBq/10 pmol peptide iv, γ-counter, mean ± SD, n = 4; for Biodistribution, Stomach: stomach emptied of contents; for Biodistribution, Intestines: intestines not emptied
# Procedure: as §1, §2
# [3] = tested on: A431-CCK2R(+) tumor-bearing mice; conditions: 4 h after injection
# Procedure: Five mice bearing A431-CCK2R(+) xenografts on their shoulders were used for SPECT/CT imaging. Three out of five mice received Entresto by gavage 30 min prior to radiotracer injection. All five animals were injected with a bolus containing [^111In]In-SG4 (100 μL, 5 MBq of HPLC isolated preparation) via the tail vein and were euthanized 4 h later. […] The SPECT system was based on monolithic NaI detectors attached to SiPMs, with a 0.6 mm intrinsic resolution. The CT system was based on a structured CMOS detector of CsI with pixels of 75 µm and operated between 35 and 80 kVp, 10–500 µA tube current, with a 33 µm fixed focal spot size. For SPECT scans, a 60 min duration protocol was applied, based on the injected activity. A CT scan followed after each SPECT scan, according to a General Purpose protocol under 50 kVp for co-registration purposes. The MLEM reconstruction method was applied for the reconstruction of SPECT images with a 250 µm voxel size and 500 iterations. The ISRA reconstruction method with a 100 µm voxel size was applied for the reconstruction of CT images. Images were exported and post-processed on VivoQuant software, version 4.0 (Invicro, Boston, MA, USA). A smoothing median filter (0.6 mm, spherical window) was applied to the images and for consistency purposes, the bladder was removed.
# [4] = Entresto: 12 mg/200 mL by gavage 30 min before, co-injected with vehicle
# [5] = LBQ657: co-injected with 10 µg LBQ657
smiles,measurement,setting,value
"CCCC[C@H](NC(=O)[C@H](Cc1c[nH]c2ccccc12)NC(=O)CNC(=O)[C@H](Cc1ccc(O)cc1)NC(=O)[C@H](C)NC(=O)[C@@H](CCC(=O)O)NC(=O)CN1CCN(CC(=O)O)CCN(CC(=O)O)CCN(CC(=O)O)CC1)C(=O)N[C@@H](CC(=O)O)C(=O)N[C@@H](Cc1ccccc1)C(N)=O [[^111In]In-SG4, metal not drawn] ({DOTA}-[dE]AYGW[Nle]DF-NH2)",tissue uptake at 4 h,[1]; A431-CCK2R(+) tumor,3.07 ± 0.87 %ID/g
same,tissue uptake at 4 h,[1]; A431-CCK2R(−) tumor,0.28 ± 0.21 %ID/g
same,tissue uptake at 4 h,[1]; blood,0.03 ± 0.02 %ID/g
same,tissue uptake at 4 h,[1]; femur,0.1 ± 0.03 %ID/g
same,tissue uptake at 4 h,[1]; heart,0.05 ± 0.02 %ID/g
same,tissue uptake at 4 h,[1]; kidneys,2.1 ± 0.49 %ID/g
same,tissue uptake at 4 h,[1]; liver,0.15 ± 0.02 %ID/g
same,tissue uptake at 4 h,[1]; lungs,0.06 ± 0.01 %ID/g
same,tissue uptake at 4 h,[1]; muscle,0.03 ± 0.02 %ID/g
same,tissue uptake at 4 h,[1]; pancreas,0.08 ± 0.09 %ID/g
same,tissue uptake at 4 h,[1]; spleen,0.11 ± 0.04 %ID/g
same,"Biodistribution, Stomach",[2]; Controls: co-injected with vehicle,1.29 ± 0.25 %IA/g
same,"Biodistribution, Femur",[2]; [4],0.14 ± 0.03 %IA/g
same,"Biodistribution, Kidneys",[2]; [4],2.40 ± 0.61 %IA/g
same,"Biodistribution, Pancreas",[2]; [4],0.34 ± 0.14 %IA/g
same,"Biodistribution, Spleen",[2]; [4],0.22 ± 0.05 %IA/g
same,"Biodistribution, Tumor (+) (A431-CCK2R(+))",[2]; [4],9.61 ± 1.70 %IA/g
same,"Biodistribution, Tumor (–) (A431-CCK2R(−))",[2]; [4],0.40 ± 0.23 %IA/g
same,"Biodistribution, Intestines",[2]; [4],0.34 ± 0.07 %IA/g
same,"Biodistribution, Stomach",[2]; [4],2.86 ± 0.53 %IA/g
same,"Biodistribution, Intestines",[2]; [5],0.49 ± 0.12 %IA/g
same,"Biodistribution, Stomach",[2]; [5],3.10 ± 0.41 %IA/g
same,"change of tumor uptake on SPECT/CT, Entresto-treated vs controls","[3]; Entresto orally 30 min in advance (3 mice) vs controls (2 mice), A431-CCK2R(+) tumors, 5 MBq iv",notable increase in the tumor uptake
same,accumulation in A431-CCK2R(+) xenografts on SPECT/CT images,"[3]; SCID mice bearing A431-CCK2R(+) tumors, 5 MBq HPLC-isolated iv, five mice",Significant accumulation

# From publication PMC7760338, “One Step Closer to Clinical Translation: Enhanced Tumor Targeting of [^99mTc]Tc-DB4 and [^111In]In-SG4 in Mice Treated with Entresto” (Pharmaceutics, 2020)
